Assay results from US20190119318A1.
“And” between values parts separate entries of the source, which are not always exact repeats. Equal values may be shown once.

Key:
[1] = target: human polyclonal IgG (Gammanorm) (human); test: column DBC; base C2; ligand […]
[2] = target: human polyclonal IgG (Gammanorm) (human); test: column DBC; base C4; ligand […]
[3] = target: human polyclonal IgG (Gammanorm) (human); test: column DBC; base A20; ligand […]
[4] = target: human polyclonal IgG (Gammanorm) (human); test: column DBC; base A27; ligand […]
[5] = target: human polyclonal IgG (Gammanorm) (human); test: column DBC; base A32; ligand […]
[6] = target: human polyclonal IgG (Gammanorm) (human); test: column DBC; base H40; ligand […]
[7] = target: human polyclonal IgG (Gammanorm) (human); test: column DBC; base A62b; ligand […]; conditions: ligand content 5.2 mg/ml
[8] = target: human polyclonal IgG (Gammanorm) (human); test: column DBC; base A65b; ligand […]
[9] = target: human polyclonal IgG (Gammanorm) (human); test: SPR; vs reference Zvar4; 0.5 M NaOH
[10] = target: human polyclonal IgG (Gammanorm) (human); test: SPR; after 100 CIP cycles 0.5 M NaOH
[11] = target: human polyclonal IgG (Gammanorm) (human); test: column DBC; base A29; ligand 11 mg/ml
[12] = target: human polyclonal IgG (Gammanorm) (human); test: column DBC; base B5; ligand 9.6 mg/ml
[13] = target: human polyclonal IgG (Gammanorm) (human); test: column DBC; base A18; ligand 8.2 mg/ml
[14] = target: human polyclonal IgG (Gammanorm) (human); test: column DBC; base A20; ligand 7.3 mg/ml
[15] = target: human polyclonal IgG (Gammanorm) (human); test: column DBC; base A27; ligand 7.5 mg/ml
[16] = target: human polyclonal IgG (Gammanorm) (human); test: column DBC; base A28; ligand 7.9 mg/ml
[17] = target: human polyclonal IgG (Gammanorm) (human); test: column DBC; base A33; ligand 7.3 mg/ml
[18] = target: human polyclonal IgG (Gammanorm) (human); test: column DBC; base A33; ligand 9.4 mg/ml
[19] = target: human polyclonal IgG (Gammanorm) (human); test: column DBC; base A39; ligand 7.0 mg/ml
[20] = target: human polyclonal IgG (Gammanorm) (human); test: column DBC; base C2; ligand 10.5 mg/ml
[21] = target: human polyclonal IgG (Gammanorm) (human); test: column DBC; base A18; ligand 13.4 mg/ml
[22] = target: human polyclonal IgG (Gammanorm) (human); test: column DBC; base A28; ligand 11.9 mg/ml
[23] = target: human polyclonal IgG (Gammanorm) (human); test: column DBC; base A33; ligand 7.33 mg/ml
[24] = target: human polyclonal IgG (Gammanorm) (human); test: column DBC; base A38; ligand 11.3 mg/ml
[25] = target: human polyclonal IgG (Gammanorm) (human); test: column DBC; base A39; ligand 10.5 mg/ml
[26] = target: human polyclonal IgG (Gammanorm) (human); test: column DBC; base A40; ligand 13.2 mg/ml
[27] = target: human polyclonal IgG (Gammanorm) (human); test: column DBC; base A41; ligand 13.0 mg/ml
[28] = target: human polyclonal IgG (Gammanorm) (human); test: column DBC; base A41; ligand 8.83 mg/ml
[29] = target: human polyclonal IgG (Gammanorm) (human); test: column DBC; base A43; ligand 6.99 mg/ml
[30] = target: human polyclonal IgG (Gammanorm) (human); test: column DBC; base A62a; ligand 6.4 mg/ml
[31] = target: human polyclonal IgG (Gammanorm) (human); test: column DBC; base A62a; ligand 6.6 mg/ml
[32] = target: human polyclonal IgG (Gammanorm) (human); test: column DBC; base A65a; ligand 6.1 mg/ml
[33] = target: human polyclonal IgG (Gammanorm) (human); test: column DBC; base A65a; ligand 6.6 mg/ml
[34] = target: human polyclonal IgG (Gammanorm) (human); test: column DBC; base A39; ligand 10.48 mg/ml
[35] = target: human polyclonal IgG (Gammanorm) (human); test: column DBC; base A40; ligand 13.15 mg/ml
[36] = target: human polyclonal IgG (Gammanorm) (human); test: column DBC; base A62a; ligand 14.8 mg/ml
[37] = target: human polyclonal IgG (Gammanorm) (human); test: column DBC; base A63a; ligand 14.0 mg/ml
[38] = target: human polyclonal IgG (Gammanorm) (human); test: column DBC; base A65a; ligand 13.6 mg/ml
[39] = target: human polyclonal IgG (Gammanorm) (human); test: column DBC; ligand 12 mg/ml; before incubation in 1 M NaOH
[40] = target: human polyclonal IgG (Gammanorm) (human); test: column DBC; ligand 20 mg/ml; before incubation in 1 M NaOH

Which Qb10% 2.4 min [1] does the source give for “Zvar(Q9A,N11E,Q40V,A42K,N43A,L44I)4 (designed binder)” here?
Its Qb10% 2.4 min is 39 mg/mL.

And the Qb10% 6 min [1]?
The Qb10% 6 min was 46 mg/mL.

What about the Qb10% 2.4 min [2] of the same substance?
Its Qb10% 2.4 min is 59 mg/mL.

What about the Qb10% 6 min [2] of the same substance?
Its Qb10% 6 min is 67 mg/mL.

What about the Qb10% 2.4 min [3] of the same substance?
Its Qb10% 2.4 min is 49 mg/mL.

And the Qb10% 6 min [3]?
The Qb10% 6 min was 67 mg/mL.

And the Qb10% 2.4 min [4]?
Its Qb10% 2.4 min is 24.8 mg/mL.

And the Qb10% 6 min [4]?
Its Qb10% 6 min is 55.6 mg/mL.

And the Qb10% 2.4 min [5]?
Its Qb10% 2.4 min is 40 mg/mL.

And the Qb10% 6 min [5]?
Its Qb10% 6 min is 57 mg/mL.

What about the Qb10% 2.4 min [6] of the same substance?
Its Qb10% 2.4 min is 47 mg/mL.

What about the Qb10% 6 min [6] of the same substance?
The Qb10% 6 min was 52 mg/mL.

What about the Qb10% 2.4 min [7] of the same substance?
Its Qb10% 2.4 min is 40 mg/mL.

What about the Qb10% 2.4 min [8] of the same substance?
The Qb10% 2.4 min was 42 mg/mL.

What about the Qb10% 6 min [8] of the same substance?
Its Qb10% 6 min is 46 mg/mL.

And the capacity relative to ref. 100 cycles [9]?
The capacity relative to ref. 100 cycles was 1.34.

What about the capacity relative to ref. 200 cycles [9] of the same substance?
Its capacity relative to ref. 200 cycles is 2.06.

What about the capacity relative to ref. 300 cycles [9] of the same substance?
Its capacity relative to ref. 300 cycles is 3.56.

What about the remaining capacity 100 cycles [10] of the same substance?
Its remaining capacity 100 cycles is 90%.

And the Qb10% 2.4 min [11]?
The Qb10% 2.4 min was 34.9 mg/mL.

What about the Qb10% 6 min [11] of the same substance?
Its Qb10% 6 min is 64.7 mg/mL.

And the Qb10% 2.4 min [12]?
Its Qb10% 2.4 min is 45 mg/mL.

And the Qb10% 6 min [12]?
Its Qb10% 6 min is 47 mg/mL.

And the Qb10% 2.4 min [13]?
The Qb10% 2.4 min was 52 mg/mL.

What about the Qb10% 6 min [13] of the same substance?
Its Qb10% 6 min is 59 mg/mL.

What about the Qb10% 2.4 min [14] of the same substance?
The Qb10% 2.4 min was 45.1 mg/mL and 45 mg/mL.

What about the Qb10% 6 min [14] of the same substance?
Its Qb10% 6 min is 57.2 mg/mL and 57 mg/mL.

And the Qb10% 2.4 min [15]?
Its Qb10% 2.4 min is 29.2 mg/mL.

What about the Qb10% 6 min [15] of the same substance?
Its Qb10% 6 min is 48.7 mg/mL.

What about the Qb10% 2.4 min [16] of the same substance?
Its Qb10% 2.4 min is 42.4 mg/mL and 42 mg/mL.

And the Qb10% 6 min [16]?
The Qb10% 6 min was 58.2 mg/mL and 58 mg/mL.

What about the Qb10% 2.4 min [17] of the same substance?
Its Qb10% 2.4 min is 49 mg/mL.

What about the Qb10% 6 min [17] of the same substance?
The Qb10% 6 min was 56 mg/mL.

And the Qb10% 2.4 min [18]?
The Qb10% 2.4 min was 51 mg/mL.

What about the Qb10% 6 min [18] of the same substance?
Its Qb10% 6 min is 58 mg/mL.

What about the Qb10% 2.4 min [19] of the same substance?
The Qb10% 2.4 min was 42 mg/mL.

And the Qb10% 6 min [19]?
Its Qb10% 6 min is 55 mg/mL.

And the Qb10% 2.4 min [20]?
Its Qb10% 2.4 min is 42 mg/mL.

What about the Qb10% 6 min [20] of the same substance?
The Qb10% 6 min was 57 mg/mL.

What about the Qb10% 6 min [21] of the same substance?
The Qb10% 6 min was 63 mg/mL.

What about the Qb10% 2.4 min [22] of the same substance?
Its Qb10% 2.4 min is 39.9 mg/mL and 40 mg/mL.

What about the Qb10% 6 min [22] of the same substance?
Its Qb10% 6 min is 63.8 mg/mL and 64 mg/mL.

What about the Qb10% 2.4 min [23] of the same substance?
Its Qb10% 2.4 min is 48.7 mg/mL.

And the Qb10% 6 min [23]?
Its Qb10% 6 min is 55.8 mg/mL.

And the Qb10% 2.4 min [24]?
The Qb10% 2.4 min was 48 mg/mL.

What about the Qb10% 6 min [24] of the same substance?
The Qb10% 6 min was 73 mg/mL.

And the Qb10% 2.4 min [25]?
The Qb10% 2.4 min was 44 mg/mL.

What about the Qb10% 6 min [25] of the same substance?
Its Qb10% 6 min is 65 mg/mL.

What about the Qb10% 2.4 min [26] of the same substance?
The Qb10% 2.4 min was 57 mg/mL.

What about the Qb10% 6 min [26] of the same substance?
The Qb10% 6 min was 71 mg/mL.

What about the Qb10% 2.4 min [27] of the same substance?
Its Qb10% 2.4 min is 35 mg/mL.

What about the Qb10% 6 min [27] of the same substance?
The Qb10% 6 min was 62.2 mg/mL.

And the Qb10% 2.4 min [28]?
Its Qb10% 2.4 min is 38.5 mg/mL and 37.8 mg/mL and 35.1 mg/mL.

And the Qb10% 6 min [28]?
Its Qb10% 6 min is 56.8 mg/mL and 58.6 mg/mL and 57.2 mg/mL.

And the Qb10% 2.4 min [29]?
The Qb10% 2.4 min was 33.4 mg/mL.

And the Qb10% 6 min [29]?
The Qb10% 6 min was 49.8 mg/mL.

And the Qb10% 2.4 min [30]?
Its Qb10% 2.4 min is 43 mg/mL.

What about the Qb10% 6 min [30] of the same substance?
The Qb10% 6 min was 45 mg/mL.

And the Qb10% 2.4 min [31]?
The Qb10% 2.4 min was 41 mg/mL.

And the Qb10% 6 min [31]?
The Qb10% 6 min was 46 mg/mL.

And the Qb10% 2.4 min [32]?
The Qb10% 2.4 min was 40 mg/mL.

What about the Qb10% 6 min [32] of the same substance?
The Qb10% 6 min was 44 mg/mL.

What about the Qb10% 2.4 min [33] of the same substance?
Its Qb10% 2.4 min is 42 mg/mL.

And the Qb10% 6 min [33]?
The Qb10% 6 min was 47 mg/mL.

And the Qb10% 2.4 min [34]?
The Qb10% 2.4 min was 44.4 mg/mL.

And the Qb10% 6 min [34]?
Its Qb10% 6 min is 64.8 mg/mL.

And the Qb10% 2.4 min [35]?
The Qb10% 2.4 min was 56.9 mg/mL.

What about the Qb10% 6 min [35] of the same substance?
Its Qb10% 6 min is 71.1 mg/mL.

And the Qb10% 2.4 min [36]?
The Qb10% 2.4 min was 55 mg/mL.

And the Qb10% 6 min [36]?
The Qb10% 6 min was 62 mg/mL.

And the Qb10% 2.4 min [37]?
Its Qb10% 2.4 min is 48 mg/mL.

And the Qb10% 6 min [37]?
The Qb10% 6 min was 56 mg/mL.

And the Qb10% 2.4 min [38]?
The Qb10% 2.4 min was 52 mg/mL.

What about the Qb10% 6 min [38] of the same substance?
The Qb10% 6 min was 61 mg/mL.

And the Qb10%, 6 min, before incubation [39]?
Its Qb10%, 6 min, before incubation is 78 mg/mL.

And the Qb10%, 6 min, before incubation [40]?
Its Qb10%, 6 min, before incubation is 73 mg/mL.
